Assay results taken from article PMC3120933 (Journal of the American Chemical Society, 2011).

T1: cav(1-104), truncated caveolin-1 with intramembrane and C-terminal domains deleted (human, UniProt Q03135 1-104)
T1 sequence (looked up): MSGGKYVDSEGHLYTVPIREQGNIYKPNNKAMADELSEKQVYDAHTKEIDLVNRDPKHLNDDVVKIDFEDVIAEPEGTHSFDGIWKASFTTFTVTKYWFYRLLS


Target: T1, cav(1-104), truncated caveolin-1 with …
Assay: ITC

| Binder | dH1 (first binding site) [kcal/mol] | dH2 (second binding site) [kcal/mol] |
| --- | --- | --- |
| YTSLIHSLIEESQNQQEKHEKEIIDIERWASMLQLF (designed binder) [caveolin ligand 5 fused to MBP] | -26.1 | 83.9 |
| YTSLIHSLIEESQNQQEKQEKELMELERWGSMLKCF (designed binder) [caveolin ligand 4 fused to MBP] | -20.6 | 44.8 |
